Reference: article PMC5716173
Read-outs that look alike come from different tables or passages of the source.

Assays:
Test in all cases: fluorescence anisotropy
[1] = target: T1, PabPolB exo- (family B DNA polymerase, exonuclease-deficient) (Pyrococcus abyssi, UniProt P0CL77 1-771, D215A)
T1 sequence: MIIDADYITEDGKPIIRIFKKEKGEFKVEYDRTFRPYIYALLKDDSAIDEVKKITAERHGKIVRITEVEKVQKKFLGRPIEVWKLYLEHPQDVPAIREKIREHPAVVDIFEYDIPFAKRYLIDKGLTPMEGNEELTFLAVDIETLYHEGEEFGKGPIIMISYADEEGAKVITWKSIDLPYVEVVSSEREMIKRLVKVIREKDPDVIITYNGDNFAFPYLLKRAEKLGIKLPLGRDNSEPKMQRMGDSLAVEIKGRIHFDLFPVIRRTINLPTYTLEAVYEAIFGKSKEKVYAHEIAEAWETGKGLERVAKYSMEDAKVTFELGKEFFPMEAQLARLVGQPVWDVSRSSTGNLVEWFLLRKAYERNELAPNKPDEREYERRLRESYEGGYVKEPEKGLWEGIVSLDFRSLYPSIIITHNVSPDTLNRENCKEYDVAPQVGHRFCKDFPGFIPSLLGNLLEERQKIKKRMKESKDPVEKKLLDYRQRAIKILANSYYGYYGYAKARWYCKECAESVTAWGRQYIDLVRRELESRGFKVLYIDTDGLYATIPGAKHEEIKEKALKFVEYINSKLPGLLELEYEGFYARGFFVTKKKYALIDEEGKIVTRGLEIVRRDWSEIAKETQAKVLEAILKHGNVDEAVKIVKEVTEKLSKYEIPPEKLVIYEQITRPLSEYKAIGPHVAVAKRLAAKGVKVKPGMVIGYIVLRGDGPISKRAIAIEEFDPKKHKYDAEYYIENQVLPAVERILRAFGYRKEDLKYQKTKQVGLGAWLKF

[2] = target: T1, PabPolB exo- (family B DNA polymerase, …); remark: listed apart in the source
[3] = target: T1, PabPolB exo- (family B DNA polymerase, …); remark: listed apart in the source
[4] = target: T1, PabPolB exo- (family B DNA polymerase, …); remark: listed apart in the source
[5] = target: T1, PabPolB exo- (family B DNA polymerase, …); remark: listed apart in the source
[6] = target: T1, PabPolB exo- (family B DNA polymerase, …); remark: listed apart in the source

B1: HEX-labeled primer/template 18/25 (dsDNA)
DNA 1: CGCCGGGCCGAGCCGTGC
DNA 2: AGGTCGTGCACGGCTCGGCCCGGCG
- Kd [1]: 38 ± 6 nM
- Kd [2]: 43 ± 6 nM
- Kd [3]: 20 ± 6 nM
- Kd [4]: 7 ± 1 nM
- Kd [5]: 17 ± 2 nM
- Kd [6]: 25 ± 3 nM
